Results as given in the supplement of paper PMC11246515.
± gives the standard deviation of the averaged measurements.

Assay: total protein half-life in vivo (active degradation + dilution); higher = more stable protein
[1] = E. coli NCM3722 delta-clpP delta-lon delta-hslV, growth: N-lim chemostat, doubling time 6 h
[2] = E. coli NCM3722 delta-clpP, growth: N-lim chemostat, doubling time 6 h
[3] = E. coli NCM3722 delta-hslV, growth: N-lim chemostat, doubling time 6 h
[4] = E. coli NCM3722 delta-lon, growth: N-lim chemostat, doubling time 6 h
[5] = E. coli NCM3722 delta-smpB, growth: N-lim chemostat, doubling time 6 h
[6] = wild type E. coli NCM3722, growth: C-lim chemostat, doubling time 3 h
[7] = wild type E. coli NCM3722, growth: C-lim chemostat, doubling time 6 h
[8] = wild type E. coli NCM3722, growth: C-lim chemostat, doubling time 12 h
[9] = wild type E. coli NCM3722, growth: N-lim chemostat, doubling time 6 h
[10] = wild type E. coli NCM3722, growth: N-lim chemostat, doubling time 12 h
[11] = wild type E. coli NCM3722, growth: P-lim chemostat, doubling time 6 h
[12] = wild type E. coli NCM3722, growth: P-lim chemostat, doubling time 12 h

| Sequence | total protein half-life in vivo [1] [h] | total protein half-life in vivo [2] [h] | total protein half-life in vivo [3] [h] | total protein half-life in vivo [4] [h] | total protein half-life in vivo [5] [h] | total protein half-life in vivo [6] [h] | total protein half-life in vivo [7] [h] | total protein half-life in vivo [8] [h] | total protein half-life in vivo [9] [h] | total protein half-life in vivo [10] [h] | total protein half-life in vivo [11] [h] | total protein half-life in vivo [12] [h] |
| --- | --- | --- | --- | --- | --- | --- | --- | --- | --- | --- | --- | --- |
| MLVSSNVTMQFGSKPLFENISVKFGGGNRYGLIGANGSGKSTFMKILGGDLEPTLGNVSLDPNERIGKLRQDQFAFEEFTVLDTVIMGHKELWEVKQERDRIYALPEMSEEDGYKVADLEVKYGEMDGYSAEARAGELLLGVGIPVEQHYGPMSEVAPGWKLRVLLAQALFADPDILLLDEPTNNLDIDTIRWLEQVLNERDSTMIIISHDRHFLNMVCTHMADLDYGELRVYPGNYDEYMTAATQARERLLADNAKKKAQIAELQSFVSRFSANASKSRQATSRARQIDKIKLEEVKASSRQNPFIRFEQDKKLFRNALEVEGLTKGFDNGPLFKNLNLLLEVGEKLAVLGTNGVGKSTLLKTLVGDLQPDSGTVKWSENARIGYYAQDHEYEFENDLTVFEWMSQWKQEGDDEQAVRSILGRLLFSQDDIKKPAKVLSGGEKGRMLFGKLMMQKPNILIMDEPTNHLDMESIESLNMALELYQGTLIFVSHDREFVSSLATRILEITPERVIDFSGNYEDYLRSKGIE [P0A9U3] | 5.14 ± 0.66 | 4.36 ± 0.29 | 4.35 ± 0.22 | 4.4 ± 0.35 | 4.27 ± 0.19 | 2.9 ± 0.28 | 5.571 ± 0.029 | 10.1 ± 0.12 | 4.218 ± 0.03 | 6.54 ± 0.14 | 5.08 ± 0.85 | 8.98 ± 1.4 |
| MLVVELIIVLLAIFLGARLGGIGIGFAGGLGVLVLAAIGVKPGNIPFDVISIIMAVIAAISAMQVAGGLDYLVHQTEKLLRRNPKYITILAPIVTYFLTIFAGTGNISLATLPVIAEVAKEQGVKPCRPLSTAVVSAQIAITASPISAAVVYMSSVMEGHGISYLHLLSVVIPSTLLAVLVMSFLVTMLFNSKLSDDPIYRKRLEEGLVELRGEKQIEIKSGAKTSVWLFLLGVVGVVIYAIINSPSMGLVEKPLMNTTNAILIIMLSVATLTTVICKVDTDNILNSSTFKAGMSACICILGVAWLGDTFVSNNIDWIKDTAGEVIQGHPWLLAVIFFFASALLYSQAATAKALMPMALALNVSPLTAVASFAAVSGLFILPTYPTLVAAVQMDDTGTTRIGKFVFNHPFFIPGTLGVALAVCFGFVLGSFML [P0ABN5] | 5.71 | 6.38 ± 0.28 | – | – | 5.933 ± 0.026 | > 4 | 6.25 | – | – | – | 6.8 ± 0.54 | 12.4 ± 0.89 |
| MLVYWLDIVGTAVFAISGVLLAGKLRMDPFGVLVLGVVTAVGGGTIRDMALDHGPVFWVKDPTDLVVAMVTSMLTIVLVRQPRRLPKWMLPVLDAVGLAVFVGIGVNKAFNAEAGPLIAVCMGVITGVGGGIIRDVLAREIPMILRTEIYATACIIGGIVHATAYYTFSVPLETASMMGMVVTLLIRLAAIRWHLKLPTFALDENGR [P0AFP0] | 6.04 | 5.6 | – | – | – | 2.95 | – | 9.77 | – | – | – | – |
| MLYGFSGVILQGALVTLELAISSVVLAVIIGLIGAGGKLSQNRLSGLIFEGYTTLIRGVPDLVLMLLIFYGLQIALNTVTEAMGVGQIDIDPMVAGIITLGFIYGAYFTETFRGAFMAVPKGHIEAATAFGFTRGQVFRRIMFPSMMRYALPGIGNNWQVILKSTALVSLLGLEDVVKATQLAGKSTWEPFYFAIVCGVIYLVFTTVSNGVLLFLERRYSVGVKRADL | 5.69 ± 0.1 | 6.04 ± 0.29 | – | 6.66 ± 0.46 | 5.85 ± 0.34 | 3.09 ± 0.16 | 5.6235 ± 0.0025 | 11.5 ± 2.1 | 6.17 ± 0.47 | 12.8 ± 2.3 | 5.65 ± 0.36 | 11.2 ± 2.3 |
| MLYIDKATILKFDLEMLKKHRRAIQFIAVLLFIVGLLCISFPFVSGDILSTVVGALLICSGIALIVGLFSNRSHNFWPVLSGFLVAVAYLLIGYFFIRAPELGIFAIAAFIAGLFCVAGVIRLMSWYRQRSMKGSWLQLVIGVLDIVIAWIFLGATPMVSVTLVSTLVGIELIFSAASLFSFASLFVKQQ [P0AET5] | 5.35 ± 0.17 | 5.39 ± 0.49 | 5.44 ± 0.84 | 5.08 ± 0.17 | 6.6 ± 0.066 | 2.2 | – | > 16 | 5.33 ± 0.29 | 10.1 | 5.5 ± 0.65 | 10.1 ± 1.1 |
| MLYKGDTLYLDWLEDGIAELVFDAPGSVNKLDTATVASLGEAIGVLEQQSDLKGLLLRSNKAAFIVGADITEFLSLFLVPEEQLSQWLHFANSVFNRLEDLPVPTIAAVNGYALGGGCECVLATDYRLATPDLRIGLPETKLGIMPGFGGSVRMPRMLGADSALEIIAAGKDVGADQALKIGLVDGVVKAEKLVEGAKAVLRQAINGDLDWKAKRQPKLEPLKLSKIEATMSFTIAKGMVAQTAGKHYPAPITAVKTIEAAARFGREEALNLENKSFVPLAHTNEARALVGIFLNDQYVKGKAKKLTKDVETPKQAAVLGAGIMGGGIAYQSAWKGVPVVMKDINDKSLTLGMTEAAKLLNKQLERGKIDGLKLAGVISTIHPTLDYAGFDRVDIVVEAVVENPKVKKAVLAETEQKVRQDTVLASNTSTIPISELANALERPENFCGMHFFNPVHRMPLVEIIRGEKSSDETIAKVVAWASKMGKTPIVVNDCPGFFVNRVLFPYFAGFSQLLRDGADFRKIDKVMEKQFGWPMGPAYLLDVVGIDTAHHAQAVMAAGFPQRMQKDYRDAIDALFDANRFGQKNGLGFWRYKEDSKGKPKKEEDAAVEDLLAEVSQPKRDFSEEEIIARMMIPMVNEVVRCLEEGIIATPAEADMALVYGLGFPPFHGGAFRWLDTLGSAKYLDMAQQYQHLGPLYEVPEGLRNKARHNEPYYPPVEPARPVGDLKTA | 4.12 ± 0.27 | 3.24 ± 0.056 | 3.02 ± 0.12 | 3.8 ± 0.82 | 3.27 ± 0.31 | 2.93 ± 0.14 | 4.89 ± 0.061 | 8.047 ± 0.056 | 3.34 ± 0.46 | 4.71 ± 0.23 | 5.3 ± 0.11 | 9.82 ± 0.77 |
